# Test results published in US6988446B2, “Purified nitric oxide synthase” (priority 1996, dated 2006).
# Where two headings read alike, the source gives them in different places. Marks after values point to notes of the source that are not given here. Non-standard residues stand in square brackets, D forms with d. No end group written: not given here. 2Thi = N[C@@H](Cc1cccs1)C(=O)O
# Legend:
# [1] = target: nNOS (Rattus norvegicus, UniProt P29476); conditions: cited from earlier work
# [2] = target: T1, nNOS-II (Rattus norvegicus, UniProt P29476); assay: Kinetic determinations (KM, Vmax, Ki) with the standard enzyme assay; type: biochemical
# T1 sequence (P29476 whole entry): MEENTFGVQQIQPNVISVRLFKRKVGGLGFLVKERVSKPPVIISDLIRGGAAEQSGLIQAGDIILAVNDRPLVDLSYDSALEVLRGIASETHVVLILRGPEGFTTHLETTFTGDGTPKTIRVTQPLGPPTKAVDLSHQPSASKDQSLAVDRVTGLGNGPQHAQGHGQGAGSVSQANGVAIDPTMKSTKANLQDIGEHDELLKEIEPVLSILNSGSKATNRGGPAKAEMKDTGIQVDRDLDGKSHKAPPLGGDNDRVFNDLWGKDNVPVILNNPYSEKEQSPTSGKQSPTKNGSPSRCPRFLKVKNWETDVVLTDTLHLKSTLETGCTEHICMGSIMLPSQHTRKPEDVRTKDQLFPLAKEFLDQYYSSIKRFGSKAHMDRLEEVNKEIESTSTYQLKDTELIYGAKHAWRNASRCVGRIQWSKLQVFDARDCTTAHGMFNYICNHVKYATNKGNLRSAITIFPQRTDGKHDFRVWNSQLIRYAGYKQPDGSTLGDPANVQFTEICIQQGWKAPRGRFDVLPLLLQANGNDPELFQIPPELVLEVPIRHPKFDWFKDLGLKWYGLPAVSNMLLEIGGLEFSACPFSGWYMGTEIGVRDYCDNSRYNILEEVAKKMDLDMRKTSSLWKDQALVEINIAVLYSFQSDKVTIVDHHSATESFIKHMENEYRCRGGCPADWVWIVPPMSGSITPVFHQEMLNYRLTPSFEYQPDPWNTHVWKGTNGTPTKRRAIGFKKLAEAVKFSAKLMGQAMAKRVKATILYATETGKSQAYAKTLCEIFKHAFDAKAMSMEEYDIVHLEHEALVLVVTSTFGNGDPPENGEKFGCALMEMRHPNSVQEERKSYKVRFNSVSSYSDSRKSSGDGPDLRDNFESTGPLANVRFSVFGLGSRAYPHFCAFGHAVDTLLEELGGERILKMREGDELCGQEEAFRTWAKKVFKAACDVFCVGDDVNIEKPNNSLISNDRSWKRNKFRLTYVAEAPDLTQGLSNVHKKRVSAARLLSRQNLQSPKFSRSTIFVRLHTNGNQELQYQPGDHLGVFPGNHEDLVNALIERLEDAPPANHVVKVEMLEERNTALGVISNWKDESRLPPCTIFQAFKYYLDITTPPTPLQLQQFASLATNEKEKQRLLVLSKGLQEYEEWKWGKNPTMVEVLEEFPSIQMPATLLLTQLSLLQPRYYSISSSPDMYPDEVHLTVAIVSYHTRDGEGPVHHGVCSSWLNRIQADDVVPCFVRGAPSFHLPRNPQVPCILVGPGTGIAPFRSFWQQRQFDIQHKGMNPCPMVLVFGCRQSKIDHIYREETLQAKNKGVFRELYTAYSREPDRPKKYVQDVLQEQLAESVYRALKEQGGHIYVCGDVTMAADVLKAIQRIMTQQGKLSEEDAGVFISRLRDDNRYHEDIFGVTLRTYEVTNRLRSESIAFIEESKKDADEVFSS
# Experimental: (§1) NOS Activity Assay: NOS activity was determined spectrophotometrically by the rapid and quantitative oxidation of oxyhemoglobin to methemoglobin (Feelish et al., Eur. J. Pharmacol. 139:19-30 (1987); Olken et al., Biochem. Biophys. Res. Commun. 177:828-833 (1991)).
# (§2) Thus, reaction mixtures for NOS assays containing 50 mM Tris-HCl buffer (pH 7.5), were optimized to contain 4 μM oxyhemoglobin, 100 μM NADPH, 1 mM CaCl2, 10 μM FAD, 10 μM FMN, 20 μM BH4, 150 μM DTT, 100 μM BK or L-arginine and 0.1-3 μg enzyme in a final volume of 0.5 mL.
# (§3) Thus, calmodulin (10 μg/mL) was added to the reaction mixtures when L-arginine was used as substrate.
# Kinetic data were calculated by fitting experimental data to the EZ-FIT program (Perrella, Anal. Biochem. 174.437-447 (1988)).
# (§4) NOS activity assay. NOS activity was determined spectrophotometrically by the rapid and quantitative oxidation of oxyhemoglobin to methemoglobin (10,11). Optimized reaction mixtures for NOS assays contained 50 mM Tris-HCl buffer (pH 7.5), and were optimized to contain 4 μM oxyhemoglobin, 100 μM NADPH, 1 mM CaCl2, 10 μM FAD, 10 μM FMN, 20 μM BH. 150 μM DTT, 100 μM BK or L-arginine and 0.1-3 μg enzyme in a final volume of 0.5 ml. Calmodulin (10 μg/ml) was added to the reaction mixtures when L-arginine was used as substrate.
# Kinetic determinations. Kinetic experiments were conducted using the standard enzyme assay described above. […] Kinetic data were calculated by fitting experimental data to EZ-FIT program (12).
# [3] = target: T1, nNOS-II; assay: Standard NOS enzyme assay (oxyhemoglobin to methemoglobin), peptides as substrates, initial velocity; type: biochemical; parameters: decrease of activity as substrate: concentration or dose not given beside the values; conditions: for relative activity as substrate for nNOS-II (in words): comparator (arginine or BK)
# Experimental: as §1, §2, §3, §4
# [4] = Table 3, substrate 100 μM (poly-arginine 5 μg/ml), purified nNOS-II 0.2 μg, activity for arginine = 100%, means of three measurements
# [5] = substrate 100 μM (poly-arginine 5 μg/ml), purified nNOS-II 0.2 μg, activity for arginine = 100%, means of three measurements
compound,measurement,setting,value
N=C(N)NCCC[C@H](N)C(=O)O [L-arginine],Km,"[1]; previously described nNOS (Bredt et al.), read-out: reported KM for nNOS",2 µM
same,apparent Vmax for nNOS,"[1]; previously described nNOS, L-arginine as substrate",0.96 μmol/min/mg protein
same,apparent Vmax,"[2]; substrate of nNOS-II, calmodulin added when L-arginine is substrate",0.85 μmol/min/mg protein
same,Relative Activity (%),[3],100^c %
same,Relative activity (%),[3],100^c %
Arg-Pro-Pro-Gly-Phe (RPPGF; rat) [BK fragment 1-5],Relative activity (%),[3]; [4],61%
same,Relative Activity (%),[3]; [5],61%
same,activity of that for BK,"[3]; text of Example 2, relative to BK",about 50%
Arg-Pro-Pro-Gly-Phe-Ser-Pro-Phe (APPGFSPF; rat) [Des-Arg^9-BK],Relative activity (%),[3]; [4],180%
same,Relative Activity (%),[3]; [5],180%
same,relative activity as substrate for nNOS-II (in words),[3]; text of Example 2,about one-fold higher than that of arginine
ISRPPGFSPFR [Ile-Ser-BK],Relative activity (%),[3]; [4],110%
same,Relative Activity (%),[3]; [5],110%
KPPGFSPFR [[Lys^1]-BK],Relative activity (%),[3]; [4],113%
same,Relative Activity (%),[3]; [5],113%
Lys-Arg-Pro-Pro-Gly-Phe-Ser-Pro-Phe-Arg [Lys-BK],Relative Activity (%),[3],116%
same,Relative activity (%),[3],116%
same,relative activity as substrate for nNOS-II (in words),[3]; text of Example 2,almost the same activity
Met-Lys-Arg-Pro-Pro-Gly-Phe-Ser-Pro-Phe-Arg [Met-Lys-BK],Relative Activity (%),[3],0%
same,Relative activity (%),[3],0%
same,relative activity as substrate for nNOS-II (in words),[3]; text of Example 2,no activity at all
PPGFSP [BK fragment 2-7],Relative activity (%),[3]; [4],0%
same,Relative Activity (%),[3]; [5],0%
PPGFSPFR [Des-Arg^1-BK],Relative activity (%),[3]; [4],94%
same,Relative Activity (%),[3]; [5],94%
same,relative activity as substrate for nNOS-II (in words),[3]; text of Example 2,activity similar to that of arginine
Poly-arginine,Relative Activity (%),[3],30%
same,Relative activity (%),[3],30%
same,activity for nNOS-II comparing to that of arginine,[3],30%
RPPGFSP [BK fragment 1-7],Relative activity (%),[3]; [4],80%
same,Relative Activity (%),[3]; [5],80%
same,decrease of activity as substrate,"[3]; text of Example 2, comparator not stated",30%
RPPGFSPFR [BK],Relative activity (%),[3]; [4],125%
same,Relative Activity (%),[3]; [5],125%
"[N-adamantaneacetyl-D-Arg^0, Hyp^3, Thi^5,8, D-Phe^7]-BK",Ki,"[2]; nNOS-II with BK as substrate, competitive inhibition, read-out: apparent Ki",2500 nM
"[Thi^5,8, D-Phe^7]-BK (RPPG[2Thi]S[dF][2Thi]R)",effect on nNOS-II activity,[2]; concentration range of 0.5-100 μM,no effect
same,effect on nNOS-II activity,[2]; concentration range of 0.5-100 mM,no effect
